T1: human CD19 (human, UniProt P15391 20-556)
T1 sequence (looked up): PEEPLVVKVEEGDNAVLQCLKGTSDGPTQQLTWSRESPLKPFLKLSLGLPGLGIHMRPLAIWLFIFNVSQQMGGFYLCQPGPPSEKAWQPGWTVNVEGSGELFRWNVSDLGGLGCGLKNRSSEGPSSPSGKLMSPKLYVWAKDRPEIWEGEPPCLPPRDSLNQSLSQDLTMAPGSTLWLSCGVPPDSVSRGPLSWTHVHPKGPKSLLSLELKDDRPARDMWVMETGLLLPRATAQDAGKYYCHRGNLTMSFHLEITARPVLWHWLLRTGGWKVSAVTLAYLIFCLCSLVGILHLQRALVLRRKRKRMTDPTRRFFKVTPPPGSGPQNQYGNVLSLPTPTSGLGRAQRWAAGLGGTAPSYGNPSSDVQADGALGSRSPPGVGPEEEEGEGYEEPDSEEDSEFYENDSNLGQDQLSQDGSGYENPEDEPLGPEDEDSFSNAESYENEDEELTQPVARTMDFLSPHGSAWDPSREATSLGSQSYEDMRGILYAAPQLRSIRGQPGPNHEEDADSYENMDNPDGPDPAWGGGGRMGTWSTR


Key:
[1] = target: T1, human CD19; experiment: cell-based or functional assay
[2] = target: T1, human CD19; experiment: cell-based or functional assay; remark: listed apart in the source

Binder | NFAT-GFP (%) after overnight co-culture with RAJI cells [1] [%] | NFAT-GFP (%) after co-culture with RAJI cells [2] [%]
CD8SP-CD19Bu12-vL-V5-[hTCRb-WT]-F-P2A-CD19Bu12-vH-Myc-[hTCRa-WT]-F-F2A-PAC (other) TCR beta: EIVLTQSPATLSLSPGERATLSCSASSSVSYMHWYQQKPGQAPRLLIYDTSKLASGIPARFSGSGSGTDFTLTISSLEPEDVAVYYCFQGSVYPFTFGQGTKLEIKRGKPIPNPLLGLDSTGSGEDLKNVFPPEVAVFEPSEAEISHTQKATLVCLATGFYPDHVELSWWVNGKEVHSGVSTDPQPLKEQPALNDSRYCLSSRLRVSATFWQNPRNHFRCQVQFYGLSENDEWTQDRAKPVTQIVSAEAWGRADCGFTSESYQQGVLSATILYEILLGKATLYAVLVSALVLMAMVKRKDSRG TCR alpha: QVQLQESGPGLVKPSQTLSLTCTVSGGSISTSGMGVGWIRQHPGKGLEWIGHIWWDDDKRYNPALKSRVTISVDTSKNQFSLKLSSVTAADTAVYYCARMELWSYYFDYWGQGTLVTVSSEQKLISEEDGSGIQNPDPAVYQLRDSKSSDKSVCLFTDFDSQTNVSQSKDSDVYITDKTVLDMRSMDFKSNSAVAWSNKSDFACANAFNNSIIPEDTFFPSPESSCDVKLVEKSFETDTNLNFQNLSVIGFRILLLKVAGFNLLMTLRLWSS | 4.49 | –
CD8SP-CD19-hu-mROO5-vL-[hTCRb-KACIAH]-F-P2A-SP-CD19-hu-mROO5-vH-[hTCRa-CSDVP]-F-F2A-PAC (other) TCR beta: DIQMTQSPSSLSASVGDRVTITCKASDHINNWLAWYQQKPGQAPKLLIYGATTLETGVPSRFSGSGSGTDYTLTISSLQPEDFATYYCQQSWNTPWTFGQGTKLEIKREDLKNVFPPEVAVFEPSKAEIAHTQKATLVCLATGFYPDHVELSWWVNGKEVHSGVCTDPQPLKEQPALNDSRYCLSSRLRVSATFWQNPRNHFRCQVQFYGLSENDEWTQDRAKPVTQIVSAEAWGRADCGITSASYHQGVLSATILYEILLGKATLYAVLVSALVLMAMVKRKDSRG TCR alpha: QVQLQQPGAELVKPGASVKMSCKASGYAFSSYWINWMKQKPGQGLEWIGQIYPGDGDTNYNGKFKGRATLTADTSSSTAYMQLSSLTSEDSAVYFCARSITTVVGCAMDYWGQGTSVTVSSIQNPDPAVYQLRDSKSSDKSVCLFTDFDSQTNVSQSKDSDVYITDKCVLDMRSMDFKSNSAVAWSNKSDFACANAFNNSIIPEDTFFPSSDVPCDVKLVEKSFETDTNLNFQNLSVIGFRILLLKVAGFNLLMTLRLWSS | 71.8 | –
CD8SP-V5-[hTCRb-KACIAH]-F-P2A-CD8SP-CD19-hu-mROO5-vL-Gly-Ser-Linker-CD19-hu-mROO5-vH-Myc-[hTCRa-CSDVP]-F-F2A-PAC (other) TCR beta: GKPIPNPLLGLDSTGSGEDLKNVFPPEVAVFEPSKAEIAHTQKATLVCLATGFYPDHVELSWWVNGKEVHSGVCTDPQPLKEQPALNDSRYCLSSRLRVSATFWQNPRNHFRCQVQFYGLSENDEWTQDRAKPVTQIVSAEAWGRADCGITSASYHQGVLSATILYEILLGKATLYAVLVSALVLMAMVKRKDSRG TCR alpha: DIQMTQSPSSLSASVGDRVTITCKASDHINNWLAWYQQKPGQAPKLLIYGATTLETGVPSRFSGSGSGTDYTLTISSLQPEDFATYYCQQSWNTPWTFGQGTKLEIKRGGGGSGGGGSGGGGSQVQLQQPGAELVKPGASVKMSCKASGYAFSSYWINWMKQKPGQGLEWIGQIYPGDGDTNYNGKFKGRATLTADTSSSTAYMQLSSLTSEDSAVYFCARSITTVVGCAMDYWGQGTSVTVSSEQKLISEEDGSGIQNPDPAVYQLRDSKSSDKSVCLFTDFDSQTNVSQSKDSDVYITDKCVLDMRSMDFKSNSAVAWSNKSDFACANAFNNSIIPEDTFFPSSDVPCDVKLVEKSFETDTNLNFQNLSVIGFRILLLKVAGFNLLMTLRLWSS | 9.55 | –
CD8SP-V5-[hTCRb-KACIAH]-F-P2A-CD8SP-hCD19-EUK5-13-vL-Gly-Ser-Linker-hCD19-EUK5-13-vH-Myc-[hTCRa-CSDVP]-F-F2A-PAC (other) TCR beta: GKPIPNPLLGLDSTGSGEDLKNVFPPEVAVFEPSKAEIAHTQKATLVCLATGFYPDHVELSWWVNGKEVHSGVCTDPQPLKEQPALNDSRYCLSSRLRVSATFWQNPRNHFRCQVQFYGLSENDEWTQDRAKPVTQIVSAEAWGRADCGITSASYHQGVLSATILYEILLGKATLYAVLVSALVLMAMVKRKDSRG TCR alpha: LPVLTQPPSVSVAPGKTARITCGGNNIGSKSVHWYQQKPGQAPVLVVYDDSDRPSGIPERFSGSNSGNTATLTISRVEAGDEADYYCQVWDSSSDYVVFGGGTKLTVLGGGGSGGGGSGGGGSEVQLVQSGAEVKKPGESLKISCKGSGYSFTSYWIGWVRQMPGKGLEWMGIIYPGDSDTRYSPSFQGQVTISADKSISTAYLQWSSLKASDTAMYYCARQVWGWQGGMYPRSNWWYNLDSWGQGTLVTVSSEQKLISEEDGSGIQNPDPAVYQLRDSKSSDKSVCLFTDFDSQTNVSQSKDSDVYITDKCVLDMRSMDFKSNSAVAWSNKSDFACANAFNNSIIPEDTFFPSSDVPCDVKLVEKSFETDTNLNFQNLSVIGFRILLLKVAGFNLLMTLRLWSS | 6.67 | –
CD8SP-hu-FMC65-1-vL-[hTCRb-D59C]-F-P2A-SP-hu-FMC65-1-vH-[hTCRa-T45C] (other) TCR beta: DVVMTQSPSSLSASVGDRVTITCRASQDISKYLNWYQQKPGKAPKLLIYHTSRLHSGVPSRFSGSGSGTDFTLTISSLQPEDFATYYCQQGNTLPYTFGGGTKVEIKEDLKNVFPPEVAVFEPSEAEISHTQKATLVCLATGFYPDHVELSWWVNGKEVHSGVSTCPQPLKEQPALNDSRYCLSSRLRVSATFWQNPRNHFRCQVQFYGLSENDEWTQDRAKPVTQIVSAEAWGRADCGFTSESYQQGVLSATILYEILLGKATLYAVLVSALVLMAMVKRKDSRG TCR alpha: QVQLQESGPGLVKPSQTLSLTCTVSGVSLPDYGVSWIRQPPGKGLEWIGVIWGSETTYYNSALKSRVLISVDTSKNQVSLKLSSVTAADTAVYYCARHYYYGGSYAMDYWGQGTTVTVSSIQNPDPAVYQLRDSKSSDKSVCLFTDFDSQTNVSQSKDSDVYICDKTVLDMRSMDFKSNSAVAWSNKSDFACANAFNNSIIPEDTFFPSPESSCDVKLVEKSFETDTNLNFQNLSVIGFRILLLKVAGFNLLMTLRLWSS | – | 1.35
CD8SP-hu-FMC65-1-vL-[hTCRb-E15C]-F-P2A-SP-hu-FMC65-1-vH-[hTCRa-S15C] (other) TCR beta: DVVMTQSPSSLSASVGDRVTITCRASQDISKYLNWYQQKPGKAPKLLIYHTSRLHSGVPSRFSGSGSGTDFTLTISSLQPEDFATYYCQQGNTLPYTFGGGTKVEIKEDLKNVFPPEVAVFCPSEAEISHTQKATLVCLATGFYPDHVELSWWVNGKEVHSGVSTDPQPLKEQPALNDSRYCLSSRLRVSATFWQNPRNHFRCQVQFYGLSENDEWTQDRAKPVTQIVSAEAWGRADCGFTSESYQQGVLSATILYEILLGKATLYAVLVSALVLMAMVKRKDSRG TCR alpha: QVQLQESGPGLVKPSQTLSLTCTVSGVSLPDYGVSWIRQPPGKGLEWIGVIWGSETTYYNSALKSRVLISVDTSKNQVSLKLSSVTAADTAVYYCARHYYYGGSYAMDYWGQGTTVTVSSIQNPDPAVYQLRDCKSSDKSVCLFTDFDSQTNVSQSKDSDVYITDKTVLDMRSMDFKSNSAVAWSNKSDFACANAFNNSIIPEDTFFPSPESSCDVKLVEKSFETDTNLNFQNLSVIGFRILLLKVAGFNLLMTLRLWSS | – | 2.48
CD8SP-CD19-hu-mROO5-vL-[hTCRa-CSDVP]-F-F2A-SP-CD19-hu-mROO5-vH-[hTCRb-KACIAH]-F-P2A-PAC (other) TCR alpha: DIQMTQSPSSLSASVGDRVTITCKASDHINNWLAWYQQKPGQAPKLLIYGATTLETGVPSRFSGSGSGTDYTLTISSLQPEDFATYYCQQSWNTPWTFGQGTKLEIKRIQNPDPAVYQLRDSKSSDKSVCLFTDFDSQTNVSQSKDSDVYITDKCVLDMRSMDFKSNSAVAWSNKSDFACANAFNNSIIPEDTFFPSSDVPCDVKLVEKSFETDTNLNFQNLSVIGFRILLLKVAGFNLLMTLRLWSS TCR beta: QVQLQQPGAELVKPGASVKMSCKASGYAFSSYWINWMKQKPGQGLEWIGQIYPGDGDTNYNGKFKGRATLTADTSSSTAYMQLSSLTSEDSAVYFCARSITTVVGCAMDYWGQGTSVTVSSEDLKNVFPPEVAVFEPSKAEIAHTQKATLVCLATGFYPDHVELSWWVNGKEVHSGVCTDPQPLKEQPALNDSRYCLSSRLRVSATFWQNPRNHFRCQVQFYGLSENDEWTQDRAKPVTQIVSAEAWGRADCGITSASYHQGVLSATILYEILLGKATLYAVLVSALVLMAMVKRKDSRG | 52.4 | –
CD8SP-pre-TCRa-del48-F-F2A-CD8SP-CD19-hu-mRO05-1-scFv-V5-[hTCRb-S57C-opt]-F-P2A-Pac (other) TPFPSLAPPIMLLVDGKQQMVVVCLVLDVAPPGLDSPIWFSAGNGSALDAFTYGPSPATDGTWTNLAHLSLPSEELASWEPLVCHTGPGAEGHSRSTQPMHLSGEASTARTCPQEPLRGTPGGALWLGVLRLLLFKLLLFDLLLTCSCLCDPAGPLPSPATTTRLRALGSHRLHPATETGGREATSSPRPQPRDRRWGDTPPGRKPGSPV TCR beta: DIQMTQSPSSLSASVGDRVTITCKASDHINNWLAWYQQKPGQAPKLLIYGATTLETGVPSRFSGSGSGTDYTLTISSLQPEDFATYYCQQSWNTPWTFGQGTKLEIKRGGGGSGGGGSGGGGSQVQLQQPGAELVKPGASVKMSCKASGYAFSSYWINWMKQKPGQGLEWIGQIYPGDGDTNYNGKFKGRATLTADTSSSTAYMQLSSLTSEDSAVYFCARSITTVVGCAMDYWGQGTSVTVSSGKPIPNPLLGLDSTGSGEDLKNVFPPEVAVFEPSEAEISHTQKATLVCLATGFYPDHVELSWWVNGKEVHSGVCTDPQPLKEQPALNDSRYCLSSRLRVSATFWQNPRNHFRCQVQFYGLSENDEWTQDRAKPVTQIVSAEAWGRADCGFTSESYQQGVLSATILYEILLGKATLYAVLVSALVLMAMVKRKDSRG | 6.77 | –
CD8SP-CD19-MOR0028-vL-Myc2-[hTCRb-KACIAH]-F-P2A-SP-CD19-MOR0028-vH-Myc4-[hTCRa-CSDVP]-F-F2A-PAC (other, also called 022817-L08) TCR beta: DIVMTQSPATLSLSPGERATLSCRSSKSLQNVNGNTYLYWFQQKPGQSPQLLIYRMSNLNSGVPDRFSGSGSGTEFTLTISSLEPEDFAVYYCMQHLEYPITFGAGTKLEIKEQKLISEEDLGSGEDLKNVFPPEVAVFEPSKAEIAHTQKATLVCLATGFYPDHVELSWWVNGKEVHSGVCTDPQPLKEQPALNDSRYCLSSRLRVSATFWQNPRNHFRCQVQFYGLSENDEWTQDRAKPVTQIVSAEAWGRADCGITSASYHQGVLSATILYEILLGKATLYAVLVSALVLMAMVKRKDSRG TCR alpha: EVQLVESGGGLVKPGGSLKLSCAASGYTFTSYVMHWVRQAPGKGLEWIGYINPYNDGTKYNEKFQGRVTISSDKSISTAYMELSSLRSEDTAMYYCARGTYYYGTRVFDYWGQGTLVTVSSEQKLISEEDLGSGIQNPDPAVYQLRDSKSSDKSVCLFTDFDSQTNVSQSKDSDVYITDKCVLDMRSMDFKSNSAVAWSNKSDFACANAFNNSIIPEDTFFPSSDVPCDVKLVEKSFETDTNLNFQNLSVIGFRILLLKVAGFNLLMTLRLWSS | 31.6 | –

From patent US20260167693A1 (ANGELES THERAPEUTICS, published 2026)
